Measurements taken from the nanobody polyreactivity screen of Harvey et al. (2022).

Assay: yeast display, Sf9 membrane polyspecificity reagent, FACS + sequencing; frameworks hold sequencing errors
Outline: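 In a synthetic yeast display library (Saccharomyces cerevisiae BJ5465), nanobody expression was induced with galactose for 36–48 hours. FACS gates were set low and high (top ~1%) using anti-HA fluorescence for expression and streptavidin fluorescence for binding of the Sf9 membrane reagent. Each polyreactivity label is drawn from the gate of origin.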

Sequence	polyreactivity (PSR sort gate)
QVQLVESGGGLVQAGGSLRLSCAASGLTFLNNAMGWYRQAHGKERELVAAISDGGSTNYADSVKGRFTISRDNAKNTVYLQMNSLKPEDTAVYYCGADYTSASYGSWGQGTQVTVSS	low polyreactivity
QVQLVESGGGLVQAGGSLRLSCSASGSISHYAMGWYRQAPGKERELVAAISRRGGSTYYADSVKGRFTISRDNAKNTVYLQKNSLKPEDTAVYYCNKATSYFTVRGYDYCGQGTQVTVSS	high polyreactivity
QVQLVESGGGLVQAGGSLRLSCAASGSIFGNNVMGWYRQAPGKERELVAAITSGTSTYYADSVKGRFTISRDNAKNTVYLQMNSLKPEDTAVYYCAALWSSRYVVHPQWYDYWGQGTQVTVSS	low polyreactivity
QVQLVESGGCLVQAGGSLRLSCAASGSTLWGYAMGWYRQAPGKERELVAAITSSGGITYYADSVKGRFTISRDNAKNTVYFQMNSLKPEDTAVYFCAVDYYVVGWTYLYYYWGQGTQVTVSS	low polyreactivity
QVQLQESGGGLVQAGGSLRLRCAASGTISDRAGMGWYRQAPAKNAIVATIDRGTNTNYADSVKGRFTISRDNAKNTVYLQMNSLKPEDTAVYNCAADGRYYIYLDYWGQGTQVTVSS	low polyreactivity
QVQLVESGGGLVQAGGSLRLSCAASGSTYYYAMGWYREAPGKERELVAAISSSSGSTYYADSVKGRFTISRDNAKNTVYLQLNSLKPEDTAVYYCAAEGYKGWVYEYDYWGQGTQVTVSS	low polyreactivity
QVQLVESGGGLVQAGGSLRLSCAASGSTFGYNAMGWYRQAPGKERELVATITSTGGGTYYADSVKGRFTISRDNAKNTVYLQMNSLKPEDTAVYYCAAVYYSLDYVHGYPPHYDYWGQGTQVTVSS	low polyreactivity
QVQLVESGGGLVQAGGSLRLSCAASGIILGSYVMGWYRQAPGKERELVAVISFSGGSTYSADSVKGRFTISRDNAKNTVYLQMNSLKPEDTAVYYCAADNFRSYTIRSPYNYWGQGTQVTVSS	low polyreactivity
QVQLVESGGGLVQAGGSLRLSCAASGITFHPYALGWYRQAPGKERELVARIRSTGSTNYADSVKGRFTISRDNAKNTVYLQMNSLKPEDTAVYYCAATFRTGWRPYSFYYWGQGTQVTVSS	high polyreactivity
QVQLVESGGGLVHAGGSLRLSCAASGRTVKNNAMGWYRQSPGKERDLVAAISSTGSTNYADSVKGRFTISRDNAKNPVYLQMNSLKPADTAVYYCAAEGIFRYYTQATMEYWGQGTQVTVSS	low polyreactivity
QFQLVESGGGLVQARGRLRLSCAASGSIFSYNAMGWYRQAPGKERELVARISSSGSTNYADSVKGRFTISRDNAKNTVYIQMNSLKPEDTAVYYCNKDPYWPSWTRRRREYYYWGQGTQVTVSS	high polyreactivity
QVQLVESGGGLVLAGASLRLSCAPSGFIFVRYAMGWYRAAPGKERELVAAISSGGSTKYADSVKGRFTISRDNAKNTVYLQMNSLKPEDTAVYYCAADATPGRGVDYWGQGTQVTVSS	high polyreactivity
QVQLVESGGGLVQAGCSLRLSCAASGLIFPGYDMGWYRQAPGKERELVADISDSGANTYYADSVKGRFTISRDNAKNTVYLQMNSLKPEDTAVYYCAADSSWWYGTSFGRFDYWGQGTQVTVSS	low polyreactivity
QVQLVESGGGLVQAGGSLRLSCAASGSTFLRNAMGWYRQAPGKEWELVATISTGSGRTYYADSVKGRFTISRDNAKNTVYLQMHSLKPEDTAVYYCAASRTLRKHRYEYWGQGTQVTVSS	high polyreactivity
QVQLVESGGGLVQAGGSLRLSCAASGSIFVLNAMGWYRQAPGKERELGAAITNVGSTYYADSVKGRFTISRDNAKNTVYLQMNSLKPEDTAVYYCNAVLAPGGYDYWGQGTQVTVSS	low polyreactivity
QVQLVESGGGLVQAGGSLRLSCAASGRTFYWYVMGWYRQAPGKERELVAAITQTGSSTYYADSVKGRFTISRDNAKNTVYLQMNSLKPEDTAVYYCADRLSRNHYEVDYWGQGTQVTVSS	low polyreactivity
QVQLVESGGGLVQAGGSLRLSCAASGRIFLVNAMGWYRQAPGKERELVAAISWSSGSTYYADSVKGSITISRDNAKNTVYLQMNSLKPEDTAVYYCAADGSSRGRYRYGYWGQGTQVTVSS	high polyreactivity
